According to publication PMC10411777, “Analytical sameness methodology for the evaluation of structural, physicochemical, and biological characteristics of Armlupeg: A pegfilgrastim biosimilar case study” (PLOS ONE, 2023):

Target: G-CSF receptor (UniProt Q99062 25-836)
Assay: SPR; BIAcore T200; G-CSF receptor immobilised on a CM5 chip at 2000 RU by amine coupling; pegfilgrastim injected at seven concentrations from 0.08 to 5 nM; 1:1 binding model; KD from kinetics; triplicates for each batch
Details: both partners purified

Chain of G-CSF receptor (Q99062 25-836): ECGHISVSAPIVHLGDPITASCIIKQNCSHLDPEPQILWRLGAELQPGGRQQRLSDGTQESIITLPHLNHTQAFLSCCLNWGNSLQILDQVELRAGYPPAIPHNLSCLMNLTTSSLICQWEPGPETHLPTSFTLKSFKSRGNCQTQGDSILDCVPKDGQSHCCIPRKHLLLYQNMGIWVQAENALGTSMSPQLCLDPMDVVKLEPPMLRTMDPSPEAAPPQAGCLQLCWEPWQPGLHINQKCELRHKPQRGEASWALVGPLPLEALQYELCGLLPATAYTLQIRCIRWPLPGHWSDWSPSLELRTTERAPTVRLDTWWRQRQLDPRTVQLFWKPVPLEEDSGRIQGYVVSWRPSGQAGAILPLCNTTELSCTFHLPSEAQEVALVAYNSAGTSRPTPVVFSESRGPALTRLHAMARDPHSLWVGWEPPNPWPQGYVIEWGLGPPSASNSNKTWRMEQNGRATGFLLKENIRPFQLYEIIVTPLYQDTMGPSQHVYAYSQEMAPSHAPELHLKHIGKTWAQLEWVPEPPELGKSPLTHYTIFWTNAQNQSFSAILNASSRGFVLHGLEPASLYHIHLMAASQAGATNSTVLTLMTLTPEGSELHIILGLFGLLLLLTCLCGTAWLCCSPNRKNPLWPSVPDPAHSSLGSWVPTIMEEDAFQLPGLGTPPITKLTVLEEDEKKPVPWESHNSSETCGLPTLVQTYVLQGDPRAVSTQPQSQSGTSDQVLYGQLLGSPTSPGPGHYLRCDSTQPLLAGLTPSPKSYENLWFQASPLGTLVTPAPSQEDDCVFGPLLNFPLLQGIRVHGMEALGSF

B1: Armlupeg (Lupin’s Pegfilgrastim) (ligand, human)
chain: MTPLGPASSLPQSFLLKCLEQVRKIQGDGAALQEKLCATYKLCHPEELVLLGHSLGIPWAPLSSCPSQALQLAGCLSQLHSGLFLYQGLLQALEGISPELGPTLDTLQLDVADFATTIWQQMEELGMAPALQPTQGAMPAFASAFQRRAGGVLVASHLQSFLEVSYRVLRHLAQP
modifications: 20 kDa monomethoxy polyethylene glycol (PEG) covalently bound to the N-terminal methionine residue
notes: N-terminal methionine residue of filgrastim, named in words; it carries the PEG; Filgrastim: recombinant human granulocyte colony-stimulating factor (G-CSF), 175 amino acids with the N-terminal methionine; 18 lots were used for SPR; also called proposed biosimilar; source: Armlupeg drug product lots (Lupin Limited)
**Q.** With B1 as the binder, how does the Kd read?
**A.** Its Kd is 0.0512 to 0.118 nM.
